These binders were tested against T1, mRFP-GABARAPL1 (UniProt Q9H0R8 1-117) (assay: recruitment of LIR-GFP or gProbe). Details: partners not purified.
T1 construct: also called membrane-anchored GABARAPL1
Parameters: unit not given here

T1 sequence (Q9H0R8 whole entry): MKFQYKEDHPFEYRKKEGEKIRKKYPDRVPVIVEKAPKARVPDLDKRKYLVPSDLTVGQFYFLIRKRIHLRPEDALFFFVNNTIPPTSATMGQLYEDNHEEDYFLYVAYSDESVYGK

Row | Binder | other
1 | PSEDSPLLEDWDIISPKDVIGSDVL (domain or fragment, source: HKO HeLa cells, transfected, in cells; not shown: GFP, C-terminal, kept) [LIR(TBC1D25)-GFP] | 1.41
2 | SKDSSCDTDDFVMVPAQFPGDLVAE (domain or fragment, source: HKO HeLa cells, transfected, in cells; not shown: GFP, C-terminal, kept) [LIR(ULK1)-GFP] | 1.58
3 | ERFFDSEDEDFEILSL (domain or fragment, also called ATG4B (4B); source: HKO HeLa cells, transfected, in cells; not shown: GFP, C-terminal, kept) [LIR(4B)-GFP] | 2.19
4 | FALEETLESDWVAVRPHVFDEREKH (domain or fragment, source: HKO HeLa cells, transfected, in cells; not shown: GFP, C-terminal, kept) [LIR(JMY)-GFP] | 1.46
5 | NSQDRVDHEEWEMVPRHSSWGDVGV (domain or fragment, also called STBD1 (St); source: HKO HeLa cells, transfected, in cells; not shown: GFP, C-terminal, kept) [LIR(St)-GFP] | 5.08
6 | FVSEEDEVDGWLIIDLPDSYAAPPS (domain or fragment, also called TP53INP2 (TP); source: HKO HeLa cells, transfected, in cells; not shown: GFP, C-terminal, kept) [LIR(TP)-GFP] | 5
7 | KQLKRFSTEEFVLL (domain or fragment, source: HKO HeLa cells, transfected, in cells; not shown: GFP, C-terminal, kept) [LIR(ATG4C)-GFP] | 2.93
8 | QKVRPQQEDEWVNVQYPDQPEEPPE (domain or fragment, source: HKO HeLa cells, transfected, in cells; not shown: GFP, C-terminal, kept) [LIR(PLEKHM1)-GFP] | 1.86

The next lines start with the values.

Row | other | Binder
9 | 2.43 | PEFNEKEDDEWILVDFIDTCTGFSA (domain or fragment, source: HKO HeLa cells, transfected, in cells; not shown: GFP, C-terminal, kept) [LIR(TP53INP1)-GFP]
10 | 2.5 | SKNSSCDTDDFVLVPHNISSDHSCD (domain or fragment, source: HKO HeLa cells, transfected, in cells; not shown: GFP, C-terminal, kept) [LIR(ULK2)-GFP]
11 | 2.81 | QEQSEVDHGDFEMVSESMVLETAEN (domain or fragment, source: HKO HeLa cells, transfected, in cells; not shown: GFP, C-terminal, kept) [LIR(UBR4)-GFP]
12 | 2.65 | LRAKRPSSEDFVFL (domain or fragment, source: HKO HeLa cells, transfected, in cells; not shown: GFP, C-terminal, kept) [LIR(ATG4D)-GFP]
13 | 3.06 | DQLSLDEKDGFIFVNYSEGQTRAHL (domain or fragment, source: HKO HeLa cells, transfected, in cells; not shown: GFP, C-terminal, kept) [LIR(WDFY3/ALFY)-GFP]
14 | 2.18 | QLEEFDLEEDFEILSV (domain or fragment, source: HKO HeLa cells, transfected, in cells; not shown: GFP, C-terminal, kept) [LIR(ATG4A)-GFP]

The binders below were run against T1, mRFP-GABARAPL1 (assay: recruitment of LIR-GFP or gProbe to mRFP-mATG8-containing autophagic membranes (A:C ratio), microscopy; LIR(X)-GFP or gProbe-X co-expressed with one mRFP-mATG8 in HKO HeLa cells; 100 nM BafA1 in EBSS for 2 h; fixed in 4% PFA; autophagosome:cytosol GFP ratio normalized to GFP-expressing cells). Details: partners not purified.

Row | normalized A:C ratio | Binder
15 | 1.45 | GMQEESLQGSWVELHFSNNGNGGSV (domain or fragment, source: HKO HeLa cells, transfected, in cells; not shown: GFP, C-terminal, kept) [LIR(BNIP3)-GFP]
16 | 1.96 | PQDYESDDDSYEVLDLTEYARRHQW (domain or fragment, source: HKO HeLa cells, transfected, in cells; not shown: GFP, C-terminal, kept) [LIR(FUNDC1)-GFP]

The binders below were run against LC3A (purified, for ITC) (assay: ITC). Details: both partners purified.

Row | Kd [µM] | Binder
17 | > 132 | DGTLIIDLPDSY (also called TP53INP2 peptide; source: synthetic peptide (Cosmo Bio), purified by SEC) [LIR(TP[T]) peptide]
